“Also recorded” adds a separate entry of the source.
Tests used:
[1] = In vivo pharmacokinetics profile after subcutaneous administration (GLP-1-Fc ELISA and GLP-2-Fc ELISA); set-up: species or system male SD (Sprague Dawley) rats; conditions: for AUClast / Cmax / Half-life / Tmax: 1 mg/kg SC
Description: First, each protein was administered to 3 male SD (Sprague Dawley) rats per group at a dose of 1 mg/kg by subcutaneous (SC) route. Before injection and after 0.5, 1, 5, 10, 24, 48, 72, 120, and 168 hours after the injection, blood was collected and stored at room temperature for 30 minutes to aggregate. After centrifuging the aggregated blood at 3,000 rpm for 10 minutes, serum of each sample was collected and stored in a cryogenic freezer. Analyses were performed by an assay designed to specifically detect the GLP-1 site and Fc in the administered protein (GLP-1-Fc ELISA) and an assay designed to specifically detect the GLP-2 site and Fc in the administered protein (GLP-2-Fc ELISA). Specifically, a method of loading a biological sample on a plate coated with an antibody that binds to mouse-derived human immunoglobulin G4 (IgG4) to detect the target protein using a biotinylated anti-GLP-1 antibody (GLP-1-Fc ELISA), and a method of loading a biological sample on a plate coated with a monoclonal antibody that specifically reacts with GLP-2, to detect the target protein using a secondary antibody having HRP conjugated to mouse-derived human immunoglobulin G4 (IgG4) (GLP-2-Fc ELISA) were used. The obtained and prepared serum samples were loaded with appropriate dilutions to be analyzed at a position on a straight line of the standard curve.

B6 normal mice [2] = experiment: Small intestine changes and nutrient absorption changes (GLP-2-2G, GLP-2-Fc homodimer, MG12-5); assay type: in vivo
Description: In order to observe changes in the small intestine and nutrient absorption capacity following substance administration, an experiment was conducted in B6 normal mice. PBS and GLP-2-2G were administered twice a day, and GLP-2-Fc homodimer and MG12-5 were administered once every three days for 2 weeks. For the GLP-2-Fc homodimer and MG12-5 groups, PBS was administered twice a day, as was in the other administration groups, during the period when no drug was administered. Body weight and dietary intake were monitored at 3-day intervals, and feces were collected before administration, on days 5-6 after administration, and on days 11-12 after administration, and calorimetry was performed using a bomb calorimeter, and also, feed ingested during this period was also subjected to calorimetry through the same analysis. The energy absorption rate was defined as a value obtained by subtracting the calorific value of feces from the caloric value of ingested feed. On day 14 following drug administration, the experimental animals were sacrificed and the small intestine (pylorus ileum) was weighed.

Balb/c-nude mice = experiment: PET-MRI tissue distribution of Zr89-labelled proteins; assay type: in vivo; conditions: Zr89 label, SC
Text: Next, the present inventors performed an experiment in Balb/c-nude mice in order to observe the distribution in each tissue organ following the administration of a substance. Zr^89 was used as a radiotracer for tracking the distribution after administration of each substance. Each substance to be administered was labeled with Zr^89 as a reaction condition and a chelator selected through a preliminary test. The labeled Zr^89-protein was purified using a PD-10 column, and Zr^89 labeling efficiency and purity were confirmed using Radio TLC and SEC-HPLC. The labeling efficiency of the Zr^89-protein of 90% or more and the purity of 80% or more were determined to be appropriate, and the labeled protein was administered subcutaneously at 0.2 mCi/0.2 cc. Each administration substance was administered to three animals and static images for 20 minutes were obtained using PET-MRI at 1 hour, 6 hours, 24 hours, 48 hours, and 168 hours after injection. Through image analysis, the distribution of drugs as a function of time in the liver, small intestine, and large intestine was expressed as SUV (Standardized Uptake Value) and comparatively analyzed.

B6 normal mice [3] = experiment: MG12 vs. GLP-1 and GLP-2 combo: body weight and small intestine changes; assay type: in vivo; conditions: 12 days SC
Description: In particular, in order to observe changes in body weight and the small intestine following the substance administration, an experiment was conducted in B6 normal mice. […] After starting drug administration twice a week during the test period, feed intake was measured and expressed as cumulative feed intake, and pre-autopsy body weight was measured to calculate the body weight vs. feed intake. After the autopsy, the weight of the small intestine, and mucosal depth and villus height of the duodenum and the jejunum were measured. More specifically, after the autopsy, the entire gastrointestinal tract of the mouse was separated, the mesentery and the pancreas were excised, and the area where the ileum and the cecum meet was cut to separate the small intestine and the large intestine.

[4] = tested on: C57BL/6J male mice on CD-HFD; experiment: Choline-deficient high-fat diet (CD-HFD) metabolic syndrome model; assay type: in vivo
Text: To this end, in particular, with respect to experimental animals induced with fatty liver and steatohepatitis through high-fat diet, as shown in FIG. 13a and Table 8, the present inventors performed a choline-deficient high-fat diet ([…]) for 12 weeks using 8-week-old C57BL/6J male mice, and then 20 nmol/kg of MG12-5, MG12-8, and each of 10 nmol/kg of GLP-1 and GLP-2 combination (combo) were administrated twice subcutaneously twice to experimental animals respectively, along with a CD-HFD diet for 4 weeks, and various serological and histological analyses were performed.
First, the present inventors recorded changes in body weight and food intake of experimental animals during the experiment period.
As described above, after 16 weeks on CD-HFD, mice treated with drugs (MG12-5, MG12-8, and GLP-1 and GLP-2 combo) twice a week for 4 weeks, after food restriction 12 hours, were intraperitoneally administered with glucose at a dose of 2 g/kg, and changes in blood glucose level were measured at a time interval for a total of 3 hours. […] FIG. 14b is a graph showing the area under the curve related to changes in blood glucose level.
The present inventors sacrificed and extracted liver tissues from a mouse having completed the drug administration experiment as described above, and captured photographs thereof to examine changes in the size and color of the liver tissues, and measured the weight of the extracted liver tissues as well as ALT blood level, which is a measure of hepatotoxicity level.

[5] = 20 nmol/kg SC, 4 weeks with CD-HFD
[6] = excised liver at end of experiment

B1: MG12-5: Knob/hole Fc heterodimer: GLP-1/Exendin 4 hybrid (SEQ 5), unmodified linker, first fusion protein SEQ 28; GLP-2 (SEQ 17), second fusion protein SEQ 34 (protein)
chain 1: HGEGTFTSDVSSYLEGQAAKEFIAWLVKGGPSSGAPPPSGGGGSGGGGSGGGGSEKEKEEQEERTHTCPPCPSHTQPLGVFLFPPKPKDQLMISRTPEVTCVVVDVSQEDPEVQFNWYVDGVEVHNAKTKPREEQFNSTYRVVSVLTVLHQDWLNGKEYKCKVSNKGLPSSIEKTISKAKGQPREPQVYTLPPCQEEMTKNQVSLWCLVKGFYPSDIAVEWESNGQPENNYKTTPPVLDSDGSFFLYSRLTVDKSRWQEGNVFSCSVLHEALHNHYTQKSLSLSLGK
chain 2: HGDGSFSDEMNTILDNLAARDFINWLIQTKITDGGGGSGGGGSGGGGSEKEKEEQEERTHTCPPCPSHTQPLGVFLFPPKPKDQLMISRTPEVTCVVVDVSQEDPEVQFNWYVDGVEVHNAKTKPREEQFNSTYRVVSVLTVLHQDWLNGKEYKCKVSNKGLPSSIEKTISKAKGQPREPQVCTLPPSQEEMTKNQVSLSCAVKGFYPSDIAVEWESNGQPENNYKTTPPVLDSDGSFFLVSRLTVDKSRWQEGNVFSCSVLHEALHNHYTQKSLSLSLGK
- terminal half-life, rank among MG12-1, 3, 4 and 5 ([1]; GLP-2-Fc ELISA): shortest half-life
- Cmax, rank among MG12-1, 3, 4 and 5 ([1]; both ELISA methods): highest value
- AUClast ([1]; rat, GLP-1-Fc ELISA (Table 5)): 26.0596 ± 3.0285 µg·h/mL
- Cmax ([1]; rat, GLP-1-Fc ELISA (Table 5)): 1036.2 ± 59.5 ng/mL
- Half-life ([1]; rat, GLP-1-Fc ELISA (Table 5)): 18.4 ± 6.2 h
- Tmax ([1]; rat, GLP-1-Fc ELISA (Table 5)): 10 h
- AUClast ([1]; rat, GLP-2-Fc ELISA (Table 6)): 188.7416 ± 7.8705 µg·h/mL
- Cmax ([1]; rat, GLP-2-Fc ELISA (Table 6)): 3201.3 ± 95.6 ng/mL
- Half-life ([1]; rat, GLP-2-Fc ELISA (Table 6)): 30.6 ± 2.1 h
- Tmax ([1]; rat, GLP-2-Fc ELISA (Table 6)): 24.0 ± 0.0 h
- AUClast, rank among MG12-1, 3, 4 and 5 ([1]; rat, SC): highest
- body weight (B6 normal mice [2]; 2 weeks dosing): an increase significant compared to the negative control group; also recorded: statistically significant body weight increase compared to other drug administered groups
- energy absorption rate (B6 normal mice [2]; Week 1, after the second dose): statistically significant increase compared to the vehicle-administered group
- energy absorption rate (B6 normal mice [2]; Week 2, after the fourth dose): an increase even more significant than GLP-2-Fc homo
- small intestine weight (B6 normal mice [2]; day 14, 2 weeks dosing): most notable increase in the small intestine weight; also recorded: statistically significant increase compared to the other two drug administered group; also recorded: superior effect of increasing small intestine weight to GLP-2-2G and GLP-2-Fc homodimer
- distribution to the liver (SUV) (Balb/c-nude mice): reduced or showed no difference compared to Fc
- distribution to the small intestine and large intestine (SUV) (Balb/c-nude mice): significantly high compared to that of GLP-1-Fc homodimer and GLP-2-Fc homodimer
- body weight increase vs. feed intake (B6 normal mice [3]; normalized to cumulative feed intake): statistically significant body weight increase compared to the co-administered group
- small intestine weight (B6 normal mice [3]; Ex-4 10 nmol/kg, others 33.3 nmol/kg): statistically significant increase in the small intestine compared to the co-administered group
- body weight (relative change) [4, 5]: greater relative body weight reduction effect
- feed intake [4, 5]: lower feed intake
- blood ALT level ([4]; after 16 weeks of CD-HFD diet): decrease in ALT level to a level similar to that of the normal diet group
- liver color [4, 6]: liver color similar to that of the normal diet group
- liver weight [4, 6]: reduced
- blood glucose level, intraperitoneal glucose tolerance test ([4]; glucose 2 g/kg i.p. after 12 hours food restriction, 3 hours): statistically significant decrease in blood glucose level
- area under the curve of the change in blood glucose level ([4]; intraperitoneal glucose tolerance test): decreased two times or more
